Assay results from patent publication US20240383964A1, “De Novo Designed alpha(5) beta(1) Integrin selective minibinders” (UNIVERSITY OF WASHINGTON, priority 2023, published 2024).

Tests used:
[1] = biological target: integrin α5β1 (Homo sapiens, UniProt P05556+P08648); assay: Biolayer interferometry (BLI) binding to integrin α5β1; conditions: pH 5 supplemented with 1 mM MgCl2, 1 mM CaCl2
Description: The polypeptides of the disclosure selectively bind to α5β1 integrin with antagonistic activity. The term “antagonistic activity” is used herein to describe the activity of a polypeptide that, upon binding to α5β1 integrin, inactivates the integrin complex or inhibits processes normally initiated by the integrin. In some embodiments, the polypeptide or fusion protein of any embodiment or combination of embodiments herein, binds integrin α5β1 with an affinity of between about 0.025 nm and about 50 μm, or between about 0.05 nm and about 8 μm, or between about 0.05 nm and about 8 μm, or between about 0.05 nm and about 2.5 μm, or between about 0.05 nm and about 700 nm, or between about 0.05 nm and about 0.5 nm. The binding affinity can be measured, for example, using biolayer interferometry (BLI) or yeast display. […] In one such assay to measure the binding affinity to a51integrin, the polypeptides are cloned with an N-terminus avi-tag and biotinylated chemically. Prior to measurements, streptavidin-coated biosensors are first hydrated in assay buffer for 10 minutes. […]
15 constructs of identified initial hits were expressed and purified—their binding affinities range from nanomolar to micromolar (data not shown). […] The binding affinity of each variant was calculated as described in Cao et al, 2022. […]

[2] = biological target: integrin a8b1 (Homo sapiens, UniProt P05556+P53708); assay: BLI cross specificity, integrin a8b1; type: binding; conditions: 500 nM integrin (FIG. 2B legend: 500 nM or 1000 nM), integrin assay buffer
Chain of integrin a8b1 (P53708 39-906 limits assumed): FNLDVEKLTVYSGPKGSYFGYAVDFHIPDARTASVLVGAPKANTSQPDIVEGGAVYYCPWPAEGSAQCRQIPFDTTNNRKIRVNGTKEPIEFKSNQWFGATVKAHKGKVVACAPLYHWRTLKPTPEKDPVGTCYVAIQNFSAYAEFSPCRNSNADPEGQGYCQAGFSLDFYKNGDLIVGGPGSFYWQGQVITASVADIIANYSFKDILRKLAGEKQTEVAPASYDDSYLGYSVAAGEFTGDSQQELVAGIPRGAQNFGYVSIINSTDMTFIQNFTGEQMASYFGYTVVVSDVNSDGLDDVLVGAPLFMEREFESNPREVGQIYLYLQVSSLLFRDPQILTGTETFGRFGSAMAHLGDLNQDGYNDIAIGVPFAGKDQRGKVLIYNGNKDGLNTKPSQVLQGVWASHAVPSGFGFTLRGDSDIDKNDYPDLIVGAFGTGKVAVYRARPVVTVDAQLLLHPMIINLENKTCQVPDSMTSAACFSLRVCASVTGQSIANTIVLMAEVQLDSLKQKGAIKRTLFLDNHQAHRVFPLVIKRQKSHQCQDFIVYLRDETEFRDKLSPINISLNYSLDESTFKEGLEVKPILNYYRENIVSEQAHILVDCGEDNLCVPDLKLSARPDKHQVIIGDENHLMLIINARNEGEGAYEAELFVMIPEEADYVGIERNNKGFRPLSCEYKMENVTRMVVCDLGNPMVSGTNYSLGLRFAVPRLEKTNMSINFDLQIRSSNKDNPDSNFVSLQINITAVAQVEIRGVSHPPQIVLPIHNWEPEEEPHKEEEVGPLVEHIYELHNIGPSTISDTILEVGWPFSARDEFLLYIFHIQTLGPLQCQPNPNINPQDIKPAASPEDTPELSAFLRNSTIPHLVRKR
Chain of integrin a8b1 (P53708 907-1011 partner limits assumed): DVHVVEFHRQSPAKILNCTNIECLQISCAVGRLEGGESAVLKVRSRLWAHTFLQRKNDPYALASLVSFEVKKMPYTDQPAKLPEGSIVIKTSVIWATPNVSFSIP
Chain of integrin a8b1 (P05556 21-728 limits assumed): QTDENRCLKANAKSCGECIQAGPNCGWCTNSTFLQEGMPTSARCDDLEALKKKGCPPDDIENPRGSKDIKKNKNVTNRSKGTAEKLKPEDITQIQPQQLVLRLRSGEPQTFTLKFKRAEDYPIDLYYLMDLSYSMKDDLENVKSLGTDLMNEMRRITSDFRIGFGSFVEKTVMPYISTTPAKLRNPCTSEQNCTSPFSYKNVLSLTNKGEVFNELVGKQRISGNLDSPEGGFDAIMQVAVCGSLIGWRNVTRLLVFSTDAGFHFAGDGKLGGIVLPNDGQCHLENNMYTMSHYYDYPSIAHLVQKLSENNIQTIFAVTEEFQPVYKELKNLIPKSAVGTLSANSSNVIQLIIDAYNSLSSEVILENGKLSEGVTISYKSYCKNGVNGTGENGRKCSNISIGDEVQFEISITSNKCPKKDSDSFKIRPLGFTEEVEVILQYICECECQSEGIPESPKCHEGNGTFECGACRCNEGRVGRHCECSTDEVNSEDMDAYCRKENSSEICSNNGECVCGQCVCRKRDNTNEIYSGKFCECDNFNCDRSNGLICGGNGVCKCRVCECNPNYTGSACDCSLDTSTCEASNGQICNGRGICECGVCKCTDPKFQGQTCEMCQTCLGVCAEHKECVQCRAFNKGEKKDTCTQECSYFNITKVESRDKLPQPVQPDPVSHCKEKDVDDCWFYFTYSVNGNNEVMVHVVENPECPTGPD

[3] = test system: HUVECs; assay: Scratch-wound cell migration assay; type: cell-based, human; conditions: 20 nM, 12 hours, compared to PBS control
Experimental: FIG. 2. (A) BLI binding affinity traces for minibinder or ^8RGD^10/GGG mutant against α5β1 in indicated buffers. Minibinder affinity to integrin α5β1 is dependent on metal ion presence and RGD motif. All affinity data was collected by Octet™ R8 and binding affinity was estimated by the Octet™ ForteBio software package. (B) Minibinder has no detectable affinity in presence of 500 nM or 1000 nM integrin αvβ1, αvβ3, αvβ6, αvβ8 and α8β1. (C) Cell surface titration of minibinder 4584_V5.3 and 00179_v4.1 against K562 cells wild type. […] Integrin α5 subunit and β1 subunit were stained with integrin α5 and active integrin β1 subunit specific antibody, respectively. (E) Quantification of (D). Quantification was counted as a percentage of mb-sheets that colocalized with staining of a5 and b1, a5 only, b1 only, or none; 30-35 sheets were counted in each biological repeat. […] Minibinders were added to HUVEC cells at 0, 0.1, 1, 10, and 100 nM. Vascular stability was analyzed at 12-h timepoints. 20 images were taken in each well at random locations. The scale bar is 100 μm. (G) Quantification of (F). The number of nodes, meshes, and tubes from images in (F) were quantified using an angiogenesis analyzer plug-in in ImageJ. Statistical significance of each were analyzed using One-way Anova Bonferroni's multiple comparison test. […] The wound area of T0 and T12 time points were quantified using imageJ and level of cell migration were calculated using this equation (AreaT0-T12)/AreaT0, all samples were normalized to PBS as fold change.
The inhibitory effect of 20 nM soluble 00179_v4.1 on cell migration was assessed using the scratch-wound assay. HUVECs were seeded with either 00179_v4.1 or PBS (used as a […] control) for 12 hours before capturing images for analysis.

[4] = biological target: integrin avb1 (Homo sapiens, UniProt P05556+P06756); assay: BLI cross specificity, integrin avb1; type: binding; conditions: 500 nM integrin (FIG. 2B legend: 500 nM or 1000 nM), integrin assay buffer
Chain of integrin avb1 (P06756 31-889 limits assumed): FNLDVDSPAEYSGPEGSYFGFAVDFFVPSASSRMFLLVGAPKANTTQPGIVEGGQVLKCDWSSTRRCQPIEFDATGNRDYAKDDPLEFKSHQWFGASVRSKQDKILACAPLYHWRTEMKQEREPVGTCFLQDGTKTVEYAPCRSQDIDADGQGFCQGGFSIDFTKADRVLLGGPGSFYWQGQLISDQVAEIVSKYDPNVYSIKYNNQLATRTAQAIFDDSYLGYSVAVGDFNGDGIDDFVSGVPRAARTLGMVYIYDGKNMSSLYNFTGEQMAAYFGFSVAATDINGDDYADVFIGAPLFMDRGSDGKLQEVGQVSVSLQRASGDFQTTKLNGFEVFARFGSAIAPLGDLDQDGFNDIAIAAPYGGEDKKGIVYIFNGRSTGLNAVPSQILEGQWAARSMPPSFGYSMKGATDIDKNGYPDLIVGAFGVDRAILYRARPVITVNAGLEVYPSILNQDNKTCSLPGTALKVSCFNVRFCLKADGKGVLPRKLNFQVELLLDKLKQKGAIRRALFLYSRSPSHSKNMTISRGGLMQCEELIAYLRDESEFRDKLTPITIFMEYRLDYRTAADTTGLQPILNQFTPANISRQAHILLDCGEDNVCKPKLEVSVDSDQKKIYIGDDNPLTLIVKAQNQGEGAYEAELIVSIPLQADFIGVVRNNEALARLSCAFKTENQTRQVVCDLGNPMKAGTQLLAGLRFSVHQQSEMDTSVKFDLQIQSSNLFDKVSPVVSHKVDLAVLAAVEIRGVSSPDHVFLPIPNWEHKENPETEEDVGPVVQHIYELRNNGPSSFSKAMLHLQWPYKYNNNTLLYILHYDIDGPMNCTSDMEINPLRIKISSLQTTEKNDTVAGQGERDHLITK
Chain of integrin avb1 (P06756 891-992 partner limits assumed): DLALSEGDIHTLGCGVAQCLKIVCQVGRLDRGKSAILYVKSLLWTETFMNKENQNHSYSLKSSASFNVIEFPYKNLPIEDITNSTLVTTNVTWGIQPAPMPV
Chain of integrin avb1 (P05556 21-728 limits assumed): as the sequence (P05556 21-728 limits assumed) above

[5] = biological target: integrin avb3 (Homo sapiens, UniProt P05106+P06756); assay: BLI cross specificity, integrin avb3; type: binding; conditions: 500 nM integrin (FIG. 2B legend: 500 nM or 1000 nM), integrin assay buffer
[6] = biological target: integrin avb6 (Homo sapiens, UniProt P06756+P18564); assay: BLI cross specificity, integrin avb6; type: binding; conditions: 500 nM integrin (FIG. 2B legend: 500 nM or 1000 nM), integrin assay buffer
[7] = biological target: integrin avb8 (Homo sapiens, UniProt P06756+P26012); assay: BLI cross specificity, integrin avb8; type: binding; conditions: 500 nM integrin (FIG. 2B legend: 500 nM or 1000 nM), integrin assay buffer
[8] = biological target: T1, α5β1 on K562 cells wild type (Homo sapiens, UniProt P05556+P08648); assay: Cell surface titration of minibinder on wild type cells; type: cell-based; conditions: α5β1 the only RGD binding integrin expressed
T1 construct: endogenous in cells; host or cells: K562 wild type (printed 'A562')
T1 sequence (P08648 42-894 limits assumed): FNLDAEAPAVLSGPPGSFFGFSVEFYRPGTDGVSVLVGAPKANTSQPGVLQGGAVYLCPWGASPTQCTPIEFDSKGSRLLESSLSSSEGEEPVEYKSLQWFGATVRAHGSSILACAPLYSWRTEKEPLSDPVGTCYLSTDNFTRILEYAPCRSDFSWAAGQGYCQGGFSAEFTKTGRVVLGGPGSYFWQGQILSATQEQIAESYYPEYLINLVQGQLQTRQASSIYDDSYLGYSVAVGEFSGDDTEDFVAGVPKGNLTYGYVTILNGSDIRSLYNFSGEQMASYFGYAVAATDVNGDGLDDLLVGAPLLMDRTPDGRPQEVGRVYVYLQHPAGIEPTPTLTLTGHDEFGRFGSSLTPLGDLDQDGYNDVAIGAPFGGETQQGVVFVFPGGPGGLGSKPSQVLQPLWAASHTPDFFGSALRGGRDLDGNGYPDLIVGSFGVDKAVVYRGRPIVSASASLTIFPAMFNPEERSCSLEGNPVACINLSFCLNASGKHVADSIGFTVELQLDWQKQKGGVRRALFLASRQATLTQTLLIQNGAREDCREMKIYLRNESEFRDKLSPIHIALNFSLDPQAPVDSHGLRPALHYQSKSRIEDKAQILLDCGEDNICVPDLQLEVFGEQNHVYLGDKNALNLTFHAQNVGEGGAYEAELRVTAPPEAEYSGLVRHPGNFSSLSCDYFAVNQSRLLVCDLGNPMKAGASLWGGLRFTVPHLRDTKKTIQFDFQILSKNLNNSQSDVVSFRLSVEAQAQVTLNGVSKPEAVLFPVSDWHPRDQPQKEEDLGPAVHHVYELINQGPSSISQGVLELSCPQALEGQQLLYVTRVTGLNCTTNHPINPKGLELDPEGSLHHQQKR
T1 sequence (P08648 895-1049 partner limits assumed): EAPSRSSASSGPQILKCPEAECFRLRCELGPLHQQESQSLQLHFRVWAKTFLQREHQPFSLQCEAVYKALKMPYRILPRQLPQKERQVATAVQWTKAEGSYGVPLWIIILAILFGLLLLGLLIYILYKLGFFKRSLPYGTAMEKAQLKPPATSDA
T1 sequence (P05556 21-798): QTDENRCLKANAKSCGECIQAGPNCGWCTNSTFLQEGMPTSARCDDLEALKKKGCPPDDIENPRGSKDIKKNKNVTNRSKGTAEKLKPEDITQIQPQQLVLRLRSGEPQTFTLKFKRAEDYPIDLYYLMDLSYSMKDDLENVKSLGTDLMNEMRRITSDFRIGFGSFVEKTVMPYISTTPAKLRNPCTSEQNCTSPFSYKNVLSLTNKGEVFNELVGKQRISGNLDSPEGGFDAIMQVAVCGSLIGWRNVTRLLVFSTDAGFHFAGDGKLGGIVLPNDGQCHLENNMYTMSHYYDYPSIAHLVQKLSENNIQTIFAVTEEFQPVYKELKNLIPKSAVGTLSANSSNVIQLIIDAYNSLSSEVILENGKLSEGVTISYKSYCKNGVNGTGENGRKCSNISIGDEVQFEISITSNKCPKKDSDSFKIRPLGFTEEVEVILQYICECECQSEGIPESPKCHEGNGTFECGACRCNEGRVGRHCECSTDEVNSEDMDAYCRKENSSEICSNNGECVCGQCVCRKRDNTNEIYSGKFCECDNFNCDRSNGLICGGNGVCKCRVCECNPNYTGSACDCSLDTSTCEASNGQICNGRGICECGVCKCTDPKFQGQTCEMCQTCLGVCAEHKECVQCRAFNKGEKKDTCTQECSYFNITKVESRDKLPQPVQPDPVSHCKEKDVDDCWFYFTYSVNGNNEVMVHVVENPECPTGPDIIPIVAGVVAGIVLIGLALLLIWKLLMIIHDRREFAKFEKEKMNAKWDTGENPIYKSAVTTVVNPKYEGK
Experimental: FIG. 2. (A) BLI binding affinity traces for minibinder or ^8RGD^10/GGG mutant against α5β1 in indicated buffers. Minibinder affinity to integrin α5β1 is dependent on metal ion presence and RGD motif. All affinity data was collected by Octet™ R8 and binding affinity was estimated by the Octet™ ForteBio software package. (B) Minibinder has no detectable affinity in presence of 500 nM or 1000 nM integrin αvβ1, αvβ3, αvβ6, αvβ8 and α8β1. (C) Cell surface titration of minibinder 4584_V5.3 and 00179_v4.1 against K562 cells wild type. […] Integrin α5 subunit and β1 subunit were stained with integrin α5 and active integrin β1 subunit specific antibody, respectively. (E) Quantification of (D). Quantification was counted as a percentage of mb-sheets that colocalized with staining of a5 and b1, a5 only, b1 only, or none; 30-35 sheets were counted in each biological repeat. […] Vascular stability was analyzed at 12-h timepoints. […] (G) Quantification of (F). The number of nodes, meshes, and tubes from images in (F) were quantified using an angiogenesis analyzer plug-in in ImageJ. Statistical significance of each were analyzed using One-way Anova Bonferroni's multiple comparison test. […] The wound area of T0 and T12 time points were quantified using imageJ and level of cell migration were calculated using this equation (AreaT0-T12)/AreaT0, all samples were normalized to PBS as fold change. […]

Chain of integrin α5β1 (P08648 42-894 limits assumed): as the sequence (P08648 42-894 limits assumed) above
Chain of integrin α5β1 (P08648 895-995 partner limits assumed): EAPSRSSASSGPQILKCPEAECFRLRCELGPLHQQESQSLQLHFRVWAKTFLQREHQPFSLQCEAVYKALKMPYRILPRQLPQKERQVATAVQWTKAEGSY
Chain of integrin α5β1 (P05556 21-728 limits assumed): as the sequence (P05556 21-728 limits assumed) above

B1: 00179_v4.1: highest affinity α5β1 minibinder, sequence SELIIHGRGDFPSSELERLRERFERLGIKVRVDHKVLTLIGISEEEAERLARELRKRGIWVEIRK (protein)
chain: SELIIHGRGDFPSSELERLRERFERLGIKVRVDHKVLTLIGISEEEAERLARELRKRGIWVEIRK
[1]
  binding to α5β1 at pH 5: still can bind
[2]
  binding to integrin a8b1: No detectable binding
[3]
  cell migration: significant reduction in cell migration
[4]
  binding to integrin avb1: No detectable binding
[5]
  binding to integrin avb3: No detectable binding
[6]
  binding to integrin avb6: No detectable binding
[7]
  binding to integrin avb8: No detectable binding
[8]
  binding affinity to α5β1 on the cell surface: Nanomolar binding ability
